# In the DeepSol protein solubility set:
# Assay: soluble on expression in E. coli; label from the status in PepcDB or PDB records
row,Sequence,soluble on expression in E. coli
1,RQAVGPGGVPAGAGGSGAVLGPEAAGPEREEPECGSSGGGMSRPPPTGKMPGAPETAPGDGAGASRQRKLEALIRDPRSPINVESLLDGLNSLVLDLDFPALRKNKNIDNFLNRYEKIVKKIRGLQMKAEDYDVVKVIGRGAFGEVQLVRHKASQKVYAMKLLSKFEMIKRSDSAFFWEERDIMAFANSPWVVQLFYAFQDDRYLYMVMEYMPGGDLVNLMSNYDVPEKWAKFYTAEVVLALDAIHSMGLIHRDVKPDNMLLDKHGHLKLADFGTCMKMDETGMVHCDTAVGTPDYISPEVLKSQGGDGFYGRECDWWSVGVFLYEMLVGDTPFYADSLVGTYSKIMDHKNSLCFPEDAEISKHAKNLICAFLTDREVRLGRNGVEEIRQHPFFKNDQWHWDNIRETAAPVVPELSSDIDSSNFDDIEDDKGDVETFPIPKAFVGNQLPFIGFTYYRENLLLSDSPSCRENDSIQSRKNEESQEIQKKLYTLEEHLSNEMQAKEELEQKCKSVNTRLEKTAKELEEEITLRKSVESALRQLEREKALLQHKNAEYQRKADHEADKKRNLENDVNSLKDQLEDLKKRNQNSQISTEKVNQLQRQLDETNALLRTESDTAARLRKTQAESSKQIQQLESNNRDLQDKNCLLETAKLKLEKEFINLQSALESERRDRTHGSEIINDLQGRICGLEEDLKNGKILLAKVELEKRQLQERFTDLEKEKSNMEIDMTYQLKVIQQSLEQEEAEHKATKARLADKNKIYESIEEAKSEAMKEMEKKLLEERTLKQKVENLLLEAEKRCSLLDCDLKQSQQKINELLKQKDVLNEDVRNLTLKIEQETQKRCLTQNDLKMQTQQVNTLKMSEKQLKQENNHLMEMKMNLEKQNAELRKERQDADGQMKELQDQLEAEQYFSTLYKTQVRELKEECEEKTKLGKELQQKKQELQDERDSLAAQLEITLTKADSEQLARSIAEEQYSDLEKEKIMKELEIKEMMARHKQELTEKDATIASLEETNRTLTSDVANLANEKEELNNKLKDVQEQLSRLKDEEISAAAIKAQFEKQLLTERTLKTQAVNKLAEIMNRKEPVKRGNDTDVRRKEKENRKLHMELKSEREKLTQQMIKYQKELNEMQAQIAEESQIRIELQMTLDSKDSDIEQLRSQLQALHIGLDSSSIGSGPGDAEADDGFPESRLEGWLSLPVRNNTKKFGWVKKYVIVSSKKILFYDSEQDKEQSNPYMVLDIDKLFHVRPVTQTDVYRADAKEIPRIFQILYANEGESKKEQEFPVEPVGEKSNYICHKGHEFIPTLYHFPTNCEACMKPLWHMFKPPPALECRRCHIKCHKDHMDKKEEIIAPCKVYYDISTAKNLLLLANSTEEQQKWVSRLVKKIPKKPPAPDPFARSSPRTSMKIQQNQSIRRPSRQLAPNKPS,soluble
2,MINHIEEPSSMDAHAVSFRVEKDDLSGAVSWVARNLPTKPTQPVLRAVVITADDEGLEFAGFDYEVSTKVHINADVRQPGRIAVAGKLMSDIIGTLPNKTIEVFVEGTQVQVVCGSSRFELPLIPLDEYPPLPQLPAVTGAIDPNLFTDAVLQVAAAAGRDETLPMLTGIHMEIDGENVTLTATDRFRLALRRFTWSPANPEAKAKLLIPAKNLSDNARSLDSGSTEPVEIAVGTGENIGAEGLFGIHIDNRQTTTRMLDADFPNVSPLLPKVHNAMASVEISALSDAIRRVALVAERNAQIRMQFTRDEVILSAGGSDAGHAEESVPCAFTGDQEFLIAFNSAYLRDGLSVIRTSRVVFGFTEPSRPAIMIPEPETLPEASADGTYPTPDTEFTYLLMPVRLPG,soluble
3,MGSDKIHHHHHHDDSVFTVMDDPSAAKKPFEGVVNAGYLAQSGNTKSSSMTADSTLTWYGNTTAWSLWGNASNTSSNDERSSEKYAVGGRSRYNLTDMNYVFGQGSWLTDRYNGYQQRDVVTAGYGRQILNGPVHSLRFEFGPGVRYDEYTDGDTDTQPLGYASGTWAWQMTDNAKFSQGVSVFGAEDTTVNSESALNVAINAHFALKVAYNVTWNSEPPASAPEHTDRRTSLSLGYKM,not soluble
4,MIRSMTGFGRGRAQADGREFLVEIKTVNHRYCDIYIKLPRQISFLEDKVREVIGKSISRGKVDVFINYEDFSEDSKNILIDEGLAKTYIKSVEYLRDKYGLKDDISVSLIAKFPDILKVEKPEEDEEKIWNLLYEALSHALDSLISMRETEGEGLKNDLLERTDAIEKVVQEISIRAPEVVKEYKCKLENRIKEILEQQVIDENRLAMEVAIFADRCNIDEELVRLESHINQLRQTLNSDSDTPVGRKLDFLIQEMNREINTIGSKANDLSITQNVVEIKSELEKIREQIQNIE,soluble
5,MGSDKIHHHHHHVALLQDELKIRKIHELLHMKLALPPYQRPYSWSVKSANTLFQDTYNAYHEGLQEYRVGSVILHKENGKYNIVDGQQRLTTISILLYCLGEKDLGLLQEKYNQLSNDVIVTNYEILSKRISELPKDEQNKYKNYLFERCSVVQIVTDSEQEAFQFFDSQNSRGKELTPHDLLKSYHLREMNDEEENQKIRIINQWENVNQDDLNDLFKIYLYPLTQWYKGKSGLGYSSSKIDVFKGIKTTNVFNYAIYHKASNLFVEQFNANGSNELLASRALNQFQLTQPLMAGKRFFYYTLHYRNLLEQVQRLVSKVHTEEQVPSRRTGDLYIKQLYECALLFFADRFGIENLSKAVMQQLYTWSYSLRLVMEAVYLQTINKYVRGEHERVNYGLGMFSEISEMKNGEELKLISLEQPKIENKNKEKYRDVYDLLCEWNRW,not soluble
6,MRGSHHHHHHGSTTFNIQDGPDFQDRVVNSETPVVVDFHAQWCGPCKILGPRLEKMVAKQHGKVVMAKVDIDDHTDLAIEYEVSAVPTVLAMKNGDVVDKFVGIKDEDQLEAFLKKLIG,soluble
7,MDKSKINFNYQSRAVYSANPQTSRGRLFHETMNTLRSPFQRDRDRIIHSNAFRRLKHKTQVFIADESDHYRTRLTHSIEVSQIARTLARALYLDEDLAESIALVHDFGHTPFGHAGEDALNEAMAPYGGFDHNAQALRIVTKLEQRYANFDGLNLTWETLEGLVKHNGPLLGPYAKNKDIPIDILQYNAKQDLQLNCFAGLEAQCAAIADDIAYNAHDVDDGLRSQFLTLDQFEQVSLTAALLNDIKKEHPQLDQTRRGYTLVRRQIKTMVEDVIKQSQENLARVKPKSISDVHQAEQTIVTFSPTMAVYERELKDFLFKNLYYHDQVLNRRNAAKRIVQKLFECYYENPDVMPENWHNKTAHLTNQELARLIADFLSGMTDHYALREYQHLFDCTDNFI,not soluble
8,MSSNFIVESCSVDSEEGVKLHTRIFKPRNEGEEVSDDENLVIVLVHPFSLLGGCQALLKGIASELASKGFKSVTFDTRGAGKSTGRATLTGFAEVKDVVAVCRWLCQNVDAHRILLVGSSAGAPIAGSAVEQVEQVVGYVSLGYPFGLMASILFGRHHKAILSSPKPKLFVMGTQDGFTSVSQLKKKLKSAVGRTETHLIEGVSHFQMEGPEYDSQVTDIICKFISSL,not soluble
9,MDQSSHHHHHHMDQKQIEEIVRSVMASMGQAAPAPSEAKCATTNCAAPVTSESCALDLGSAEAKAWIGVENPHRADVLTELRRSTVARVCTGRAGPRPRTQALLRFLADHSRSKDTVLKEVPEEWVKAQGLLEVRSEISDKNLYLTRPDMGRRLCAEAVEALKAQCVANPDVQVVISDGLSTDAITVNYEEILPPLMAGLKQAGLKVGTPFFVRYGRVKIEDQIGEILGAKVVILLVGERPGLGQSESLSCYAVYSPRMATTVEADRTCISNIHQGGTPPVEAAAVIVDLAKRMLEQKASGINMTR,soluble
10,MSFDLSWYGVPVEEEAKEEEAIVYGIPNNPELEQIIPAKFHSFVNEVIGDYNTLSDEEFWKKYNLREIWFDVKEYEEDNKAKNMLGTIIVFLLVEKEYILQLDYKEDLVDYIEDIDNYWGKEEVKLISFEVDNDQQYYAYVPKTAAIDSLYEVKLTEVEKIEEV,not soluble
11,GSPEFMIGEEVPSDQYYWAPLAQHERGSLASLDSLRKGGPPPPNWRQPELPEVIAMLGFRLDAVKSNAAAYLQHLCYRNDKVKTDVRKLKGIPVLVGLLDHPKKEVHLGACGALKNISFGRDQDNKIAIKNCDGVPALVRLLRKARDMDLTEVITGTLWNLSSHDSIKMEIVDHALHALTDEVIIPHSGWEREPNEDCKPRHIEWESVLTNTAGCLRNVSSERSEARRKLRECDGLVDALIFIVQAEIGQKDSDSKLVENCVCLLRNLSYQVHREIPQAERYQEAAPNVANNTGTSPARGYELLFQPEVVRIYISLLKESKTPAILEASAGAIQNLCAGRWTYGRYIRSALRQEKALSAIADLLTNEHERVVKAASGALRNLAVDARNKELIGKHAIPNLVKNLPGGQQNSSWNFSEDTVISILNTINEVIAENLEAAKKLRETQGIEKLVLINKSGNRSEKEVRAAALVLQTIWGYKELRKPLEKEGWKKSDFQVNLNNASRSQSSHSYDDSTLPLIDRNQKSDKKPDREEIQMSNMGSNTKSLDNNYSTPNERGDHNRTLDRSGDLGDMEPLKGTTPLMQKI,soluble
12,RHAGVVTAVERHGESLLEVTCRLQGDWSHRAGQFAFLTCDRLEGAHPFTIASADRGCGEVRFSIKALGDYTRRLQDNLEVGARVEVEGPYGCFDFRRGLAGRQVWVAAGIGVTPFIAWLESLQAAPESAPSVELHYCVRNSQEALFAGRLRELCEH,not soluble
13,MCRALQEQREASAAIAREILGDIKLNVTDGEFAVSIAQQEALESYVDLLEKQEQELIAELHRTVLRLSAKIAATRHLRNLAIREAGKQQGMRMAEDTTERGERQHEEA,not soluble
14,MGSDKIHHHHHHMAKLYFYYSTMNAGKSTTLLQSDYNYRERNMNTLVYTAAIDDRFGKGKVSSRIGIHRQANLFHKDTDLFTEIALHIKQQKLHCILIDEAQFLTKAQVYQLSNVVDELNIPVLCYGLRTDFQAELFEGSKYLLAWADQLEELKTICYCGRKANFVLRLNEQGKAVKDGEQIQIGGNDSYMSVCRKHYKEILYSSNE,not soluble
15,MAHHHHHHMIPHICVNAANYSHTQFEECLTHMCDLSEELSAFKRTAVSLKRQATGDAETSKLALQYMEEALEKVLHVTQGVKEGNKTIGTAAAVKKSVIEAKIASDIADEEASKVERKLDKATRDAGNAEKNLQRILIYTARKACSSEGISSQDEEVKEAQCNVSTEIVYSCTRRPLKIKSDTLRKTYERLKSFTRTPNKTINEHLPKCHMWTELLEPAVASLTDMEKSASVARAYRNQVIKARGEAQQAAWTVGVTVQDVDGLDEVSEEDDFALAPVVLVAVLIVGAVLIDQHP,not soluble
16,MNNPDLPYRQALECLSQKQYNFTEVRRLLTEAFSAGHPAAAFELAKHLMDADSPYQDREQGMEMLRIAAEQGHPYARYNLAYIQELEGAPPETLIPLYRPLAEEGLPEAQVRLMYLLYASRHFEEALEWAKTSAKNNNPHGQYLLAQYCRYGTPPDFETAHLLYRKSAAQGLPEAHWQLGLQYRFGQGTKVDTAQAVNHLRAAAQQGYIPAYTPLAELILPTAPDEAVHWFQQAAQENDPDAHAALADIYLQGKHLERNHKLALHHAEAAAAERHPEGLRILGDICRYGLGIAPDTEKARHYYRQAAEAGSLSAYQKLISDSALNHPDQYGGIKDSAIRRQRAERLYQKAQALHYGLQCAPEYAAALKLYTEAAELGHSKAQTNLGSMYYFGQGMTADYNEARKWFEKAAAKKDSMAFYNLACIHYSGHGVEPDKEKACRYLQEAINNGYGQKSVLQELLQQWQNAV,not soluble
17,MAEDSNSSESIIVNVTGDDNKSALFGKYDLGKLLGSGAFAKVYQAEDLQNGGESVAIKVVQKKRLKDGLTAHVKREISVMRRLRHPHIVLLSEVLATKTKIYFVMELAKGGELFSRVTSNRFTESLSRKYFRQLISAVRYCHARGVFHRDLKPENLLLDENRDLKVSDFGLSAMKEQIHPDGMLHTLCGTPAYVAPELLLKKGYDGSKADIWSCGVVLFLLNAGYLPFRDPNIMGLYRKIHKAQYKLPDWTSSDLRKLLRRLLEPNPELRITVEEILKDPWFNHGVDPSEIIGIQADDYDLEENGKILNAFDLISSASSSNLSGLFGNFVTPDHCDQFVSDESTAVIMRKVEEVAKQLNLRIAKKKERAIKLEGPHGVANVVVKVRRLTNELVMVEMKNKQRDVGLVWADALRQKLRRLINQPVYKVPDKP,not soluble
